# Source: PMC4126800 (Nature, 2014)
# Target: the molecule itself
# Test: SAXS
protein,measurement,value
"Human CD81 large extracellular loop (CD81 LEL, residues 112-202) (domain or fragment) GFVNKDQIAKDVKQFYDQALQQAVVDDDANNAKAVVKTFHETLDCCGSSTLTALTTSVLKNNLCPSGSNIISNLFKEDCHQKIDDLFSGKL",stoichiometry N,2
